Measured values published in US20100261660A1 (published 2010).

Target: T1, Soluble CD28-Ig (extracellular domain of human CD28 fused to the Fc portion of human IgG1) (human, UniProt P10747 19-152, biotin-conjugated (NHS-biotin) in the FACS binding assays)
T1 construct: extracellular domain; bought from R&D Systems; also called sCD28-Ig; CD28-Ig Fc; not shown: Fc portion of human IgG1
Experiment: competitive FACS on transfected cells, biotin-sCD28-Ig with FITC-sCTLA-4-Ig; grade 0-2 of CD28/CTLA-4 ratio vs WT hB7-1

B1: Round 1 CD28BP-126 (ligand)
chain: ITPKSVTKRVKETVMLSCDYSTSTEELTSLRIYWQKDSKMVLAILPGKVQVWPEYKNRTITDMNDNPRIVILALRLSDSGTYTCVIQKPDLKGAYKLEHLTSVRLMIRADFPVPTINDLGNPSPNIRRLICSTSGGFPRPHLYWLENGEELNATNTTVSQDPGTELYMISSELDFNVTNNHSIVCLIKYGELSVSQIFPWSKPKQEPPIDQLPFWVIIPVSGALVLTAVVLYCLACRHVARWKRTRRNEETVGTERLSPIYLGSAQSSG
notes: also called R1clone 126; Clone 126
- Binding Score: 1

B2: Round 2 CD28B2-8 (ligand)
chain: ITPKSVTKRVKETVMLSCDYNTSTEELTSLRIYWQKDSKMVLAILPGKVQVWPEYKNRTITDMNDNPRIVILALRLSDKGTYTCVIQKPVLKGAYKLEHLASVRLMIRADFPVPTINDLGNPSPNIRRLICSTSGGFPRPHLYWLENGEELNATNTTVSQDPGTELYMISSELDFNVTNNHSIVCLIKYGELSVSQIFPWSKPKQEPPIDQLPFWVIIPVSGALVLTAVVLYCLACRHVARWKRTRRNEETVGTERLSPIYLGSAQSSG
- Binding Score: 1

B3: Round 2 CD28BP-2 (ligand)
chain: ITPKSVTKRVKETVMLSCDYSTSTEELTSLRIYWQKDSKMVLAILPGKVQVWPEYKNRTITDMNDNPRIVILALRLSDSGTYTCVIQKPVLKGAYKLEHLASVRLMIRADFPVPTINDLGNPSPNIRRLICSTSGGFPRPHLYWLENGEELNATNTTLSQDPETKLYMISSELDFNVTNNHSIVCLIKYGELSVSQIFPWSKPKQEPPIDQLPFWVIIPVSGALVLTAVVLYRPACRHVARWKRTRRNEETVGTERLSPIYLGSAQSSG
- Binding Score: 2

B4: Round 2 CD28D8-9 (ligand)
chain: ITPKSVTKRVKETVMLSCDYSTSTEELTSLRIYWQKDSKMVLAILPGKVQVWPEYKNRTITDMNDNPRIVILALRLSDSGTYTCVIQKPVLKGAYKLEHLTSVRLMIRADFPVPTINDLGNPSPNIRRLICSTSGGFPRPHLYWLENGEELNATNTTVSQDPGTELYMISSELDFNVTNNHSIVCLIKYGELSVSQIFPWSKPKQEPPIDQLPFWVIIPVSGALVLTAVVLYCLACRHVARWKRTRRNEETVGTERLSPIYLGSAQSSG
- Binding Score: 1

B5: Round 2 CD28BP-16 (ligand)
chain: ITPKSVTKRVKETVMLSCDYNTSTEELTSLRIYWQKDSKMVLAILPGKVQVWPEYKNRTITDMNDNPRIVILALRLSDSGTYTCVIQKPVLKGAYKLEHLTSVRLMIRADFPVPTINDLGNPSPNIRRLICSTSGGFPRPHLYWLENGEELNATNTTVSQDPGTELYMISSELDFNVTNNHSIVCLIKYGELSVSQIFPWSKPKQEPPIDQLPFWVIIPVSGALVLAAVVLYCLACRHVARWKRTRRNEETVGTERLSPIYLGSAQSSG
- Binding Score: 2

B6: Round 2 CD28A6-1 (ligand)
chain: ITPKSVTKRVKETVMLSCDYNTSTEELTSLRIYWQKDSKMVLAILPGKVQVWPEYKNRTITDMNDNPRIVILALRLSDSGTYTCVIQKPVLKGAYKLEHLASVRLMIRADFPVPTINDLGNPSPNIRRLICSTSGGFPRPHLYWLENGEELNATNTTVSQDPETKLYMISSELDFNVTNNHSIVCLIKYGELSVSQIFPWSKPKQEPPIDQLPFRVIIPVSGALVLTAIVLYCLACRHVARWKRTRRNEETVGTERLSPIYLGSAQSSG
- Binding Score: 1

B7: Round 2 CD28BP-5 (ligand)
chain: ITPKSVTKRVKETVMLSCDYSTSTEELTSLRIYWQKDSKMVLAILPGKVQVWPEYKNRTITDMNDNPRIVILALRLSDKGTYTCVVQKPVLKGAYKLEHLTSVRLMIRADFPVPTINDLGNPSPNIRRLICSTSGGFPRPHLYWLENGEELNATNTTVSQDPGTELYMISSELDFNVTNNHSIVCLIKYGELSVSQIFPWSKPKQEPPIDQLPFWVIIPVSGALVLTAVVLYCLACRHVARWKRTRRNEETVGTERLSPIYLGSAQSSG
- Binding Score: 2

B8: Round 2 CD28C8-6 (ligand)
chain: ITPKSVTKRVKETVMLSCDYNTSTEELTSLRIYWQKDSKMVLAILPGKVQVWPEYKNRTITDMNDNPRIVILALRLSDSGTYTCVIQKPVLKGAYKLEHLASVRLMIRADFPVPTINDLGNPSPNIRRLICSTSGGFPRPHLYWLENGEELNATNTTVSQDPGTELYMISSELGFNVTNNHSIVCLIKYGELSVSQIFPWSKPKQEPPIDQLPFWVIIPVSGALVLTAVVLYCLACRHVARWKRTRRNEETVGTERLSPIYLGSAQSSG
- Binding Score: 2

B9: Round 2 CD28A6-9 (ligand)
chain: ITPKSVTKRVKETVMLSCDYNTSTEELTSLRIYWQKDSKMVLAILPGKVQVWPEYKNRTITDMNDNPRIVILALRLSDSGTYTCVIQKPVLKGAYKLEHLASVRLMIRADFPVPTINDLGNPSPNIRRLICSTSGGFPRPHLYWLENGEELNATNTTVSQDPGTELYMISSELDFNVTNNHSIVCLIKYGELSVSQIFPWSKPKQEPPIDQLPFLVIIPVSGALVLTAVVLYCLACRHVARWKRTRRNEETVGTERLSPIYLGSAQSSG
- Binding Score: 1

B10: Round 2 CD28A4-5* (ligand)
chain: ITPKSVTKRVKETVMLSCDYNTSTEELTSLRIYWQKDSKMVLAILPGKVQVWPEYKNRTITDMNDNPRIVILALRLSDSGTYTCVIQKPVLKGAYKLEHLTSVRLMIRADFPVPTINDLGNPSPNIRRLICSTSGGFPRPHLYWLENGEELNATNTTLSQDPETKLYMISSELDFNVTNNHSIVCLIKYGELSVSQIFPWSKPKQEPPIDQLPFWVIIPVSGALVLTAVVLYCLACRHVARWKRTRRNEETVGTERLSPIYLGSAQSSG
- Binding Score: 1

B11: Round 2 CD28A8-4 (ligand)
chain: ITPKSVTKRVKETVMLSCDYNTSTEELTSLRIYWQKDSKMVLAILPGKVQVWPEYKNRTITDMNDNPRIVILALRLSDSGTYTCVIQKPVLKGAYKLEHLTSVRLMIRADFPVPTINDLGNPSPNIRRLICSTSGGFPRPHLYWLENGEELNATNTTVSQDPGTELYMISSELDFNVTNNHSIVCLIKYGELSVSQIFPWSKPKQEPPIDQLPFWVIIPVSGALVLTAVVLYCLACRHVARWKRTRRNEETVGTERLSPIYLGSAQSSG
- Binding Score: 1

B12: Round 2 CD28D2-9 (ligand)
chain: ITPKSVTKRVKETVMLSCDYNTSTEELTSLRIYWQKDSKMVLAILPGKVQVWPEYKNRTITDMNDNPRIVILALRLSDSGTYTCVIQKPVLKGAYKLEHLTSVRLMIRADFPVPTINDLGNPSPNIRRLICSTSGGFPRPHLYWLENGEELNATNTTLSQDPETELYMISSELDFNVTNNHSIVCLIKYGELSVSQIFPWSKPKQEPPIDQLPFWVIIPVSGALVLTAVVLYCLACRHVARWKRTRRNEETVGTERLSPIYLGSAQSSG
- Binding Score: 1

B13: Round 2 CD28C11-5 (ligand)
chain: ITPKSVTKRVKETVMLSCDYNTSTEELTSLRIYWQKDSKMVLAILPGKVQVWPEYKNRTITDMNDNPRIVILALRLSDSGTYTCVIQKPVLKGAYKLEHLTSVRLMIRADFPVPTINDLGNPSPNIRRLICSTSGGFPRPHLYWLENGEELNATNTTVSQDPGTELYMISSELDFNVTNNHSIACLIKYGELSVSQIFPWSKPKQEPPIDQLPFWVIIPVSGALVLTAVVLYCLACRHVARWKRTRRNEETVGTERLSPIYLGSAQSSG
- Binding Score: 2

B14: Round 2 CD28BP-13 (ligand)
chain: ITPKSVTKRVKETVMLSCDYSTSTEELTSLRIYWQKDSKMVLAILPGKVQVWPEYKNRTITDMNDNPRIVILALRLSDSGTYTCVIQKPVLKGAYKLEHLASVRLMIRADFPVPTINDLGNPSPNIRRLICSTSGGFPEPRLAWMEDGEELNAVNTTVDQDLDTELYSVSSELDFNVTNNHSIVCLIKYGELSVSQIFPWSKPKQEPPIDQLPFWVIIPVSGALVLTAVVLYCLACRHVARWKRTRRNEETVGTERLSPIYLGSAQSSG
- Binding Score: 2

B15: Round 2 CD28C6-1 (ligand)
chain: ITPKSVTKRVKETVMLSCDYSTSTEELTSLRIYWQKDSKMVLAILPGKVQVWPEYKNRTITDMNDNPRIVILALRLSDSGTYTCVIQKPVLKGAYKLEHLASVRLMIRADFPVPTINDLGNPSPNIRRLICSTSGGFPRPHLYWLENGEELNATNTTVSQDPGTELYMISSELDFNVTNNHSIVCLIKYGELSVSQIFPWSKPKQEPPIDQLPFWVIIPVSGALVLTAVVLYCLACRHGARWKRTRRNEETVGTERLSPIYLGSAQSSG
- Binding Score: 1

B16: Round 2 CD28BP-4 (ligand)
chain: ITPKSVTKRVKETVMLSCDYNTSTEELTSLRIYWQKDSKMVLAILPGKVQVWPEYKNRTITDMNDNPRIVILALRLSDSGTYTCVIQKPVLKGAYKLEHLASVRLMIRADFPVPTINDLGNPSPNIRRLICSTSGGFPRPHLCWLENGEELNATNTTVSQDPGTELYMISSELDFNVTNNHSIVCLIKYGELSVSQIFPWSKPKQEPPIDQLPFWVIIPVSGALVLTAVVLYCLACRHVARWKRTRRNEETVGTERLSPIYLGSAQSSG
- Binding Score: 2

B17: Round 2 CD28BP-17 (ligand)
chain: SGITPKSVTKRVKETVMLSCDYSTSTEELTSLRIYWQKDSKMVLAILPGKVQVWPEYKNRTFPDIINNLSLMILALRLSDKGTYTCVVQKNENGSFRREHLTSVTLSIRADFPVPSITDIGHPAPNVKRIRCSASGDFPEPRLAWMEDGEELNAVNTTVDQDLDTELYSVSSELDFNVTNNHSIVCLIKYGELSVSQIFPWSKPKQEPPIDQLPFWVIIPVSGALVLTVVVLYCLACRHVARWKRTRRNEETVGTERLSPIYLGSAQSSG
- Binding Score: 2

B18: Round 2 CD28F3-5 (ligand)
chain: SGITPKSVTKRVKETVMLSCDYNTSTEELTSLRIYWQKDSKMVLAILPGKVQVWPEYKNRTITDMNDNPRIVILALRLSDSGTYTCVVQKNENGSFRREHLTSVTLSIRADFPVPSITDIGHPAPNVKRIRCSASGGFPEPRLAWMEDGEELNAVNTTVDQDLDTELYSVSSELDFNVTNNHSIVCLIKYGELSVSQIFPWSKPKQEPPIDQLPFWVIIPVSGALVLTAVVLYCLACRHVARWKRTRRNEETVGTERLSPIYLGSAQSSG
notes: also called GD28F3-5
- Binding Score: 0

B19: Round 2 CD28G1-5 (ligand)
chain: SGITPKSVTKRVKETVMLSCDYSTSTEELTSLRIYWQKDSKMVLAILPGKVQVWPEYKNRTFPDIINNLSLMILALRLSDKGTYTCVVQKNENGSFRREHLTSVTLSIRADFPVSSITDIGHPAPNVKRIRCSASGGFPEPRLAWMEDGEELNAVNTTVDQDLDTELYSVSSELDFNVTNNHSIVCLIKYGELSVSQIFPWSKPKQEPPIDQLPFWVIIPVSGALVLTAVVLYCLACRHVARWKRTRRNEETVGTERLSPIYLGSAQSSG
- Binding Score: 1
